Assays:
[1] = biological target: T1, Human RON-hIgG1 Fc (RON Sema/PSI/IPT1 fused to human IgG1 Fc) (human); experiment: plate binding assay, plate-bound RON-Fc, soluble His-tagged MSP, anti-His-HRP, 4-parameter fit
T1 construct: also called RON-Fc; hRON-Fc
From the text: (§1) Means of three replicates per group are shown. […] C presents results of SPR analysis of MSP proteins binding to immobilized RON Sema/PSI, showing relative response in response units. Data are representative of three independent experiments. […] Competition binding to 3T3-hRON cells (large graphs) used to generate affinities and Scatchard plots (inset graphs) are shown. Mean+/−standard deviation (SD) of three independent experiments is shown. E is a homology model of the structure of RON Sema/PSI (PDB code 4FWW) shown at the bottom, which binds to MSP β (PDB code 2ASU) shown on top. RON and MSP β were globally aligned to the Met/HGF β complex (PDB code 1SHY). Predicted locations of the MSP β contact residues within 4 Å of RON are marked by asterisks. […]
(§2) MaxiSorp plates (Nalge Nunc International) were coated overnight at 4° C. with 2 μg/ml of rabbit anti-human IgG Fc specific antibody (Jackson ImmunoResearch Laboratories) in 50 mM sodium carbonate buffer, pH 9.6. […] Bound MSP was detected using anti-His-HRP (Qiagen Inc.) followed by addition of TMB/H₂O₂ substrate (Thermo Scientific). The reaction was stopped with 1M H₃PO₄ and the absorbance at 450 nm (A₄₅₀) was measured on a SpectraMax Plus³⁸⁴ plate reader (Molecular Devices, LLC). The half maximal effective concentration of MSP (EC₅₀) was determined by a 4-parameter fit using Kaleidagraph (Synergy Software).

[2] = biological target: T2, Human RON on cells (3T3-hRON, A2780-hRON, BxPC3, human primary colon cells) (human, UniProt Q04912 25-1400); experiment: radioligand binding to 3T3-hRON cells for 2 h at room temperature
T2 construct: That is its entry for human RON
Description: (§3) MSP proteins were iodinated using the Iodogen method (Thermo Scientific) and purified from free Na¹²⁵I by gel filtration using a NAP-5 column. Specific activities ranged from 12.26 to 18.65 μCi/μg. Competition reaction mixtures were made of a fixed concentration of iodinated MSP and unlabeled MSP serially diluted 1- to 2-fold ten times starting at 5 μM in a volume of 50 μL. 3T3-hRon cells were washed with binding buffer, consisting of DMEM with 1% bovine serum albumin, 325 nM human IgG, 50 mM HEPES (pH 7.2) and 0.1% sodium azide. 150,000 cells in 0.2 ml binding buffer were added to competition reaction mixtures. Competition reactions with cells were incubated for 2 h at room temperature and transferred to a Multiscreen filter plate (Millipore) and washed 4 times with binding buffer. Filters were counted on a Wallac Wizard 1470 gamma counter (PerkinElmer Life and Analytical Sciences). Binding affinities were determined using NewLigand software (Genentech, Inc) (Munson et al., 1980, Anal Biochem 107:220-39).

[3] = biological target: T2, Human RON on cells (3T3-hRON, …); experiment: radioligand binding to 3T3-hRON cells for 4 h on ice
[4] = biological target: T2, Human RON on cells (3T3-hRON, …); experiment: radioligand competition binding on 3T3-hRON cells: fixed 125I-MSP 689R as competitor, unlabeled MSP 689R titrated [Continued) D]
Description: as §3

[5] = biological target: T1, Human RON-hIgG1 Fc (RON Sema/PSI/IPT1 …); experiment: plate binding assay, plate-bound RON-Fc, soluble His-tagged MSP β, anti-His-HRP, 4-parameter fit
From the text: as §1, §2

[6] = biological target: T1, Human RON-hIgG1 Fc (RON Sema/PSI/IPT1 …); experiment: BLI using RON-Fc at 30 C
Description: Real-time kinetic measurements of MSP binding to RON were conducted using an Octet RED384 (ForteBio, Inc). Samples or buffer were dispensed into 96-well microtiter plates (Greiner Bio-One North America, Inc.) at a volume of 200 μl per well. Anti-human IgG Fc Biosensors were used for the experiments. Each experiment consisted of three steps: incubation with ForteBio Kinetic buffer diluted 1:10 in PBS assay buffer to establish an equilibrium for 120 s (baseline), incubation with 10 μg/ml RON-Fc in assay buffer to coat the biosensor with binding target for 900 s (load), incubation with MSP, MSP β or scMSP in assay buffer containing various concentrations (75-4.7 nM, 2-fold dilution series) for 400 s (association), and incubation with assay buffer to measure the off-rate of MSP for 400 s (dissociation). Operating temperature was maintained at 30° C. Data were generated automatically by the Octet Data Acquisition 7.0 software. Each data set was fitted globally to a simple one-to-one binding model using ForteBio Analysis Software 7.0 to determine the kinetic parameters kₐ and kd. The equilibrium dissociation constants (KD) were then calculated as a ratio (koff/kₒₙ) of these rate constants.

[7] = biological target: T1, Human RON-hIgG1 Fc (RON Sema/PSI/IPT1 …); experiment: SPR capturing RON-Fc at 25 C
Description: To determine MSP protein binding kinetics to hRON-Fc or mRON-Fc fusion proteins, between 50 and 100 response units (RU) were captured on each of three immobilized anti-human Fc surfaces. Various concentrations (50-0.78 nM, 2-fold dilution series) of MSP, MSP β, MSP α or scMSP were injected in HBS-P buffer (10 mM HEPES, pH 7.5, 150 mM NaCl, 0.005% P20) at 25° C. with a flow rate of 30 μL/min and dissociation monitored for 4 min. Between measurements, the biosensor surfaces were regenerated with a 2 min pulse of 10 mM glycine-HCl pH 1.5.

[8] = biological target: T2, Human RON on cells (3T3-hRON, …); experiment: radioligand competition binding on 3T3-hRON cells: fixed 125I-MSP 689C as competitor, unlabeled MSP 689C titrated [Continued) D]
Description: as §3

[9] = biological target: T3, Recombinant human RON Sema/PSI (residues E25-P568) with C-terminal His-tag (human, UniProt Q04912 25-568); experiment: SPR using immobilized RON Sema/PSI at 25 C
T3 construct: Made in Trichoplusia ni insect cells

T1 sequence (chain, as listed by the source limits assumed): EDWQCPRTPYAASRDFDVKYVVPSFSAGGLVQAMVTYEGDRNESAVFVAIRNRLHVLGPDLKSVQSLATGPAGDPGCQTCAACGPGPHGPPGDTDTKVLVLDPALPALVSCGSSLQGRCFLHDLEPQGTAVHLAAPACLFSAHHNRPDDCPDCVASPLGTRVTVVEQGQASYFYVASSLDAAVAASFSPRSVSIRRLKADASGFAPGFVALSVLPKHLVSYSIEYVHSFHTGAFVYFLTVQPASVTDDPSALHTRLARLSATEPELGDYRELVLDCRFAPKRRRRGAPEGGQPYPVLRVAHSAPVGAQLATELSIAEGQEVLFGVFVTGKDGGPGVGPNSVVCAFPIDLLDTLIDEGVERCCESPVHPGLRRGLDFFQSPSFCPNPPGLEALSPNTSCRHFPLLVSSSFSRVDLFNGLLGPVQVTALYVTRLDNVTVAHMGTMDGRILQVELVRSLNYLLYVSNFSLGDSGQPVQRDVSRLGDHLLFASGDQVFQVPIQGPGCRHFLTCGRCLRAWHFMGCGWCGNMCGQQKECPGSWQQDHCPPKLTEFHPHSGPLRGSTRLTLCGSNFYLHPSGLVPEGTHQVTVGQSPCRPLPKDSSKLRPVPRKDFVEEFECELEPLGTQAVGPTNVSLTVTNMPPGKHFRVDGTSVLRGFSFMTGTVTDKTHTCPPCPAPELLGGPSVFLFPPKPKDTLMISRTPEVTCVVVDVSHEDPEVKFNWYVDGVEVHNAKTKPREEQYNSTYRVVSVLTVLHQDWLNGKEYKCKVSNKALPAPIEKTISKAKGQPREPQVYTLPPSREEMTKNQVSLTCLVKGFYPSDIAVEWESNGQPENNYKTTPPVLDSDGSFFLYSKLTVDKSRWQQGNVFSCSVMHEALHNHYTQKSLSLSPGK

| Binder | EC50 [1] | Kd [2] | Kd [3] | IC50 (read off the curve) [4] | EC50 [5] | Kd [6] | Kd [7] | koff [7] | kon [7] | IC50 (read off the curve) [8] | Kd [9] | koff [9] | kon [9] |
| --- | --- | --- | --- | --- | --- | --- | --- | --- | --- | --- | --- | --- | --- |
| Full length human MSP 689R (wild type + C672A + His tag), active two-chain form (ligand, Pro-MSP converted with sHepsin into the disulfide-linked alpha/beta heterodimer; Numbering is that of pro-MSP; also called full-length MSP; human full-length MSP) chain 1: QRSPLNDFQVLRGTELQHLLHAVVPGPWQEDVADAEECAGRCGPLMDCRAFHYNVSSHGCQLLPWTQHSPHTRLRRSGRCDLFQKKDYVRTCIMNNGVGYRGTMATTVGGLPCQAWSHKFPNDHKYTPTLRNGLEENFCRNPDGDPGGPWCYTTDPAVRFQSCGIKSCREAACVWCNGEEYRGAVDRTESGRECQRWDLQHPHQHPFEPGKFLDQGLDDNYCRNPDGSERPWCYTTDPQIEREFCDLPRCGSEAQPRQEATTVSCFRGKGEGYRGTANTTTAGVPCQRWDAQIPHQHRFTPEKYACKDLRENFCRNPDGSEAPWCFTLRPGMRAAFCYQIRRCTDDVRPQDCYHGAGEQYRGTVSKTRKGVQCQRWSAETPHKPQFTFTSEPHAQLEENFCRNPDGDSHGPWCYTMDPRTPFDYCALRRCADDQPPSILDPPDQVQFEKCGKRVDRLDQRRSKLR chain 2: VVGGHPGNSPWTVSLRNRQGQHFCGGSLVKEQWILTARQCFSSCHMPLTGYEVWLGTLFQNPQHGEPSLQRVPVAKMVCGPSGSQLVLLKLERSVTLNQRVALICLPPEWYVVPPGTKCEIAGWGETKGTGNDTVLNVALLNVISNQECNIKHRGRVRESEMCTEGLLAPVGACEGDYGGPLACFTHNAWVLEGIIIPNRVCARSRWPAVFTRVSVFVDWIHKVMRLGHHHHHH | 0.1 nM | 12.6 nM | 23 nM | ~10 nM |  |  |  |  |  |  |  |  |  |
| Human MSP β 689R with wild-type C672 (HGF leader + V484-G711 + C588S + C672C + His tag) (ligand) VVGGHPGNSPWTVSLRNRQGQHFCGGSLVKEQWILTARQCFSSCHMPLTGYEVWLGTLFQNPQHGEPSLQRVPVAKMVCGPSGSQLVLLKLERSVTLNQRVALISLPPEWYVVPPGTKCEIAGWGETKGTGNDTVLNVALLNVISNQECNIKHRGRVRESEMCTEGLLAPVGACEGDYGGPLACFTHNCWVLEGIIIPNRVCARSRWPAVFTRVSVFVDWIHKVMRLGHHHHHH |  |  |  |  | 0.05 nM |  |  |  |  |  |  |  |  |
| Full length human MSP R689C (wild type + C672A + R689C + His tag), active two-chain form (ligand) chain 1: QRSPLNDFQVLRGTELQHLLHAVVPGPWQEDVADAEECAGRCGPLMDCRAFHYNVSSHGCQLLPWTQHSPHTRLRRSGRCDLFQKKDYVRTCIMNNGVGYRGTMATTVGGLPCQAWSHKFPNDHKYTPTLRNGLEENFCRNPDGDPGGPWCYTTDPAVRFQSCGIKSCREAACVWCNGEEYRGAVDRTESGRECQRWDLQHPHQHPFEPGKFLDQGLDDNYCRNPDGSERPWCYTTDPQIEREFCDLPRCGSEAQPRQEATTVSCFRGKGEGYRGTANTTTAGVPCQRWDAQIPHQHRFTPEKYACKDLRENFCRNPDGSEAPWCFTLRPGMRAAFCYQIRRCTDDVRPQDCYHGAGEQYRGTVSKTRKGVQCQRWSAETPHKPQFTFTSEPHAQLEENFCRNPDGDSHGPWCYTMDPRTPFDYCALRRCADDQPPSILDPPDQVQFEKCGKRVDRLDQRRSKLR chain 2: VVGGHPGNSPWTVSLRNRQGQHFCGGSLVKEQWILTARQCFSSCHMPLTGYEVWLGTLFQNPQHGEPSLQRVPVAKMVCGPSGSQLVLLKLERSVTLNQRVALICLPPEWYVVPPGTKCEIAGWGETKGTGNDTVLNVALLNVISNQECNIKHRGRVRESEMCTEGLLAPVGACEGDYGGPLACFTHNAWVLEGIIIPNRVCARSCWPAVFTRVSVFVDWIHKVMRLGHHHHHH | 0.2 nM | 13 nM | 25.7 nM |  |  | 9.4 nM | 9.6 nM | ~0.0016 s⁻¹ | ~170000 M⁻¹ s⁻¹ | ~10 nM | 9.6 nM | 0.0012 s⁻¹ | 116000 M⁻¹ s⁻¹ |
| Human MSP β R689C with wild-type C672 (HGF leader + V484-G711 + C588S + C672C + R689C + His tag) (ligand) VVGGHPGNSPWTVSLRNRQGQHFCGGSLVKEQWILTARQCFSSCHMPLTGYEVWLGTLFQNPQHGEPSLQRVPVAKMVCGPSGSQLVLLKLERSVTLNQRVALISLPPEWYVVPPGTKCEIAGWGETKGTGNDTVLNVALLNVISNQECNIKHRGRVRESEMCTEGLLAPVGACEGDYGGPLACFTHNCWVLEGIIIPNRVCARSCWPAVFTRVSVFVDWIHKVMRLGHHHHHH |  |  |  |  | 0.1 nM |  | 9.7 nM | 0.0079 s⁻¹ | 870000 M⁻¹ s⁻¹ |  |  |  |  |
